± gives the uncertainty stated by the source.
B1: Friend leukemia integration 1 transcription factor, residues 116 to 197; numbered along this chain, Q01543 (parent)
chain: NMTTNERRVIVPADPTLWTQEHVRQWLEWAIKEYSLMEIDTSFFQNMDGKELCKMNKEDFLRATTLYNTEVLLSHLSYLRES

Variants of: B1
Test: abundance fitness (aPCA) (normalised: wild type 0, dead -1); higher = more abundant; growth selection in yeast, the domain comes from the species named
Conditions: Homo sapiens

Variant | abundance fitness
NMTTNERRVIVPADPTLWTQEHVRQWLEWAIKEASLMEIDTSFFQNMDGKELCKMNKEDFLRATTLYNTEVLLSHLSYLRES [Y34A] | -0.274 ± 0.09
NMTTNERRVIVPADPTLWTQEHVRQWLEWAIKTYSLMEIDTSFFQNMDGKELCKMNKEDFLRATTLYNTEVLLSHLSYLRES [E33T] | -0.243 ± 0.089
NMTTNERRVIVPADPTLWTQEHVRQWLEWAIKPYSLMEIDTSFFQNMDGKELCKMNKEDFLRATTLYNTEVLLSHLSYLRES [E33P] | -0.973 ± 0.19
NMTTNERRVIVPADPTLWTQEHVRQWLEWAIKKYSLMEIDTSFFQNMDGKELCKMNKEDFLRATTLYNTEVLLSHLSYLRES [E33K] | -0.021 ± 0.11
NMTTNERRVIVPADPTLWTQEHVRQWLEWAIKWYSLMEIDTSFFQNMDGKELCKMNKEDFLRATTLYNTEVLLSHLSYLRES [E33W] | -0.382 ± 0.08
NMTTNERRVIVPADPTLWTQEHVRQWLEWAIKNYSLMEIDTSFFQNMDGKELCKMNKEDFLRATTLYNTEVLLSHLSYLRES [E33N] | -0.354 ± 0.25
NMTTNERRVIVPADPTLWTQEHVRQWLEWAIKQYSLMEIDTSFFQNMDGKELCKMNKEDFLRATTLYNTEVLLSHLSYLRES [E33Q] | -0.055 ± 0.1
NMTTNERRVIVPADPTLWTQEHVRQWLEWAIKSYSLMEIDTSFFQNMDGKELCKMNKEDFLRATTLYNTEVLLSHLSYLRES [E33S] | -0.238 ± 0.073
NMTTNERRVIVPADPTLWTQEHVRQWLEWAIKVYSLMEIDTSFFQNMDGKELCKMNKEDFLRATTLYNTEVLLSHLSYLRES [E33V] | -0.435 ± 0.12
NMTTNERRVIVPADPTLWTQEHVRQWLEWAIKFYSLMEIDTSFFQNMDGKELCKMNKEDFLRATTLYNTEVLLSHLSYLRES [E33F] | -0.803 ± 0.37
NMTTNERRVIVPADPTLWTQEHVRQWLEWAIKLYSLMEIDTSFFQNMDGKELCKMNKEDFLRATTLYNTEVLLSHLSYLRES [E33L] | -0.981 ± 0.13
NMTTNERRVIVPADPTLWTQEHVRQWLEWAIKGYSLMEIDTSFFQNMDGKELCKMNKEDFLRATTLYNTEVLLSHLSYLRES [E33G] | -0.8 ± 0.14
NMTTNERRVIVPADPTLWTQEHVRQWLEWAIKDYSLMEIDTSFFQNMDGKELCKMNKEDFLRATTLYNTEVLLSHLSYLRES [E33D] | -0.117 ± 0.27
NMTTNERRVIVPADPTLWTQEHVRQWLEWAIKHYSLMEIDTSFFQNMDGKELCKMNKEDFLRATTLYNTEVLLSHLSYLRES [E33H] | -0.204 ± 0.23
NMTTNERRVIVPADPTLWTQEHVRQWLEWAIKRYSLMEIDTSFFQNMDGKELCKMNKEDFLRATTLYNTEVLLSHLSYLRES [E33R] | -0.06 ± 0.058
NMTTNERRVIVPADPTLWTQEHVRQWLEWAIKYYSLMEIDTSFFQNMDGKELCKMNKEDFLRATTLYNTEVLLSHLSYLRES [E33Y] | -0.278 ± 0.31
NMTTNERRVIVPADPTLWTQEHVRQWLEWAIKIYSLMEIDTSFFQNMDGKELCKMNKEDFLRATTLYNTEVLLSHLSYLRES [E33I] | -0.437 ± 0.4

Variant | abundance fitness
NMTTNERRVIVPADPTLWTQEHVRQWLEWAIDEYSLMEIDTSFFQNMDGKELCKMNKEDFLRATTLYNTEVLLSHLSYLRES [K32D] | 0.007 ± 0.12
NMTTNERRVIVPADPTLWTQEHVRQWLEWAICEYSLMEIDTSFFQNMDGKELCKMNKEDFLRATTLYNTEVLLSHLSYLRES [K32C] | -0.401 ± 0.11
NMTTNERRVIVPADPTLWTQEHVRQWLEWAIGEYSLMEIDTSFFQNMDGKELCKMNKEDFLRATTLYNTEVLLSHLSYLRES [K32G] | -0.2 ± 0.059
NMTTNERRVIVPADPTLWTQEHVRQWLEWAIFEYSLMEIDTSFFQNMDGKELCKMNKEDFLRATTLYNTEVLLSHLSYLRES [K32F] | -0.332 ± 0.3
NMTTNERRVIVPADPTLWTQEHVRQWLEWAINEYSLMEIDTSFFQNMDGKELCKMNKEDFLRATTLYNTEVLLSHLSYLRES [K32N] | -0.011 ± 0.19
NMTTNERRVIVPADPTLWTQEHVRQWLEWAILEYSLMEIDTSFFQNMDGKELCKMNKEDFLRATTLYNTEVLLSHLSYLRES [K32L] | -0.169 ± 0.056
NMTTNERRVIVPADPTLWTQEHVRQWLEWAIHEYSLMEIDTSFFQNMDGKELCKMNKEDFLRATTLYNTEVLLSHLSYLRES [K32H] | -0.351 ± 0.13
NMTTNERRVIVPADPTLWTQEHVRQWLEWAIWEYSLMEIDTSFFQNMDGKELCKMNKEDFLRATTLYNTEVLLSHLSYLRES [K32W] | -0.159 ± 0.057
NMTTNERRVIVPADPTLWTQEHVRQWLEWAIIEYSLMEIDTSFFQNMDGKELCKMNKEDFLRATTLYNTEVLLSHLSYLRES [K32I] | -0.189 ± 0.2
NMTTNERRVIVPADPTLWTQEHVRQWLEWAITEYSLMEIDTSFFQNMDGKELCKMNKEDFLRATTLYNTEVLLSHLSYLRES [K32T] | -0.001 ± 0.083
NMTTNERRVIVPADPTLWTQEHVRQWLEWAIPEYSLMEIDTSFFQNMDGKELCKMNKEDFLRATTLYNTEVLLSHLSYLRES [K32P] | -0.359 ± 0.099
NMTTNERRVIVPADPTLWTQEHVRQWLEWAIQEYSLMEIDTSFFQNMDGKELCKMNKEDFLRATTLYNTEVLLSHLSYLRES [K32Q] | -0.08 ± 0.073
NMTTNERRVIVPADPTLWTQEHVRQWLEWAIREYSLMEIDTSFFQNMDGKELCKMNKEDFLRATTLYNTEVLLSHLSYLRES [K32R] | -0.052 ± 0.043
NMTTNERRVIVPADPTLWTQEHVRQWLEWAIVEYSLMEIDTSFFQNMDGKELCKMNKEDFLRATTLYNTEVLLSHLSYLRES [K32V] | -0.157 ± 0.064
NMTTNERRVIVPADPTLWTQEHVRQWLEWAIEEYSLMEIDTSFFQNMDGKELCKMNKEDFLRATTLYNTEVLLSHLSYLRES [K32E] | 0.003 ± 0.082
NMTTNERRVIVPADPTLWTQEHVRQWLEWAIMEYSLMEIDTSFFQNMDGKELCKMNKEDFLRATTLYNTEVLLSHLSYLRES [K32M] | -0.209 ± 0.099
NMTTNERRVIVPADPTLWTQEHVRQWLEWAWKEYSLMEIDTSFFQNMDGKELCKMNKEDFLRATTLYNTEVLLSHLSYLRES [I31W] | -0.48 ± 0.11

— the Human Domainome abundance scans (Beltran et al. 2025)
